The nanobody polyreactivity screen of Harvey et al. (2022)

Test: yeast display, Sf9 membrane polyspecificity reagent, FACS + sequencing; frameworks hold sequencing errors
Method in brief: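 Using colony PCR, genes from sorted yeast display clones were amplified, then sequenced on MiSeq at 2 × 250 and filtered by CDR length. The clones had been stained with 10% biotinylated, detergent-solubilized Sf9 membrane reagent for 1 hour at 4 °C and sorted by FACS into low and high (top ~1%) gates on anti-HA and streptavidin fluorescence. Polyreactivity labels come from the gate of origin.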

Sequence | polyreactivity (PSR sort gate)
QVQLVESGGGLVQAGGSLRLSCAASGLIFQYYAMGWYRQAPGKERELVAGITSGANTNYADSVKGRFTISRDNAKNTVYLQMNSLKPEDTAVYYCATYVSSPYSDIWFKDFDYWGQGTQVTVSS | low polyreactivity
QVQLVESGGGLVQAGGSLRLSCAASGFTFYRYAMGWYRPAPGKERELVAAITSGGSTYYADSVKGRCTISRDNAKNTVFLQMISLKPEDTAVYSCAAQKARVSPGAWTRYVYWGQGTQVTVSS | high polyreactivity
QVQLVESGGGLVQAGGRLRLSCAASGIRSYRNGMGWYRQAPGKERELVASISKRADSTYYADSVKGRFTISRDNAKITVYLQMNSLKPEETAVYYCYVVSKVIRGLSGDGYWGQGTQGTVSS | high polyreactivity
QVQLVESGGGLVHAGGSLRLSCAASGSIFAGYAMGRYRQAPGKERELVAAITSGGRTYYADSVKGRFTISRDNAKNTVYLQMNSLKPEDTAVYYCGKRWYTKTGYDYWGQGTQVTVSS | high polyreactivity
QVQHVESGGGLVQAGGSLRLSCAASGSIFDVYTMGWYRQAPGKQRELVAAINTGGGSTYYADSVKGRFTISRDNAKNTVYLQMISLKPEDTAVYYCAASVYHYGPLYYWGQGTQVTVSS | low polyreactivity
QVQLVESAAGLVQAGGSLRLSCAASGRNFYYYAMGWYRQAPGKEREVVAAINWSGGGTYYADSVKGRFTISRDNAKNTVYLQMNSLKPEDTAVYYCAAGFRYRYYWGQGTQVTVSS | high polyreactivity
QVQLVESGGGLVQAGGSLRLSCAASGSTFDVYAMGWYRQAPGKERELVAAISLGTGITYYADSVKGRFTISRDNAKNTVYFQMNSLKPEDTAVYYCAVAIETGYGAYDGYIYYYWGQGTQVTVSS | high polyreactivity
QVQLVESGGGLVQAGGSLRLSCAASGRTFYIYARGWYRKAPGKERELVAAITYGGGRTFYADSVKGRFTISRDNAKYTVYLQMNSLKPEDNAVYYCAATVRGKRSTYDYWGQGTQVTVSS | high polyreactivity
QVQLVESGGGLVHAGGSLRLSCAASGGIFAGNVMGWDRQAPGKERYLVAAIDGDGRTYYADSVKGRFTISRDNAKNTVYLQMYSQKPEDTAVYYCAADAGVRGQYDDIDEGNYWGLGTQVTVSS | low polyreactivity
QVQLVESGGGLVQAGGSLRLSCGGSGRIFYSNAMGWYRQAPGKERELFAAIRYSGVRTYYADSLKGRFTISLDNEKNTVYLQMNSLNPEYTEVYYCNVYSRTHYQTYTDDYWGQGTQVNVSS | high polyreactivity
QVQLVESGGGLVHAGGSLRLSCAASGSTFDPNAMGWYRQAPGKERELVAAISWSGGSTYYADSVKGRFTISRDNAKNTVYLQMNSQKPEYTAVYYCNAQFYVSYSYTNDYWGQGTQVTVSS | low polyreactivity
QVQLVESGGGLVQAGGSLRLSCAATGSIFVLYAMGWYRQAPGKERALVAAISKSTGSTYYADSVKGRFTISRDNAKNTVYLQMNSLKPEDTAVYYCAARGRQYRYYDLDYWGQGTQVTVSS | low polyreactivity
QVQLVESGGGLVQAGGSLRLSCAASGSTLVDYAMGWYRQAPGKERQLVAAITSGGSTNYADSVMGRFTISRDNAKKTVYLQMNSLKPEDTAVYYCAAEWQRGLQAEYYYWGQGTKVTVSS | low polyreactivity
QVQLVESGGGLVQAGGSLRLSCAASGSTFVYNAMGWYRQAPGKERELVAAITRRGGGTYYADSVKGRFTISRDNAKNTVYLQMNSLKPEDTAVYYCAADSRGWSLDGDYWGQGTQVTVSS | low polyreactivity
QVQLVESGGGLVQAGGSLRLSCAASGIIVPNAMGWYRPAPGKERELVAAMSRSGGSTNYADSVKGRFTISRDNAKNTVYLQMNSLKPEDTAVYYCATKYNADTRYDYWGQGTQVTVSS | low polyreactivity
QVQLEESGGGLVQAGGSLRLSCAASGSIFWLYAMGWYRQAPGKEREFVAAITTSGSSTRYADSVKGRFTISRDNAKNTVYVQMNSLKPEDTAVYYCAARNRTFFQPTYYYWGQGTQVTVSS | high polyreactivity
QVQLVESGGGLVQAGGSLRLSCAASGRIFYPYAMGWYRPAPGKERELVAVINGSGGSTYYADSVKGRFTISRDNAKNTVYLPMNSLKPEDTAVYYCAADYPKTYTSKFNYWGQGTQVTVSS | high polyreactivity
QVHLVESGGGLVQAGGSLRLSCAASGRIFPGYAMGWYRQAPGKERELVAAISWIGGDTYYADSVKGRFTISRDNAKNTVYLQMNSLIPEDTAVYYCAARYGRHRVSWYATWRYGYWGQGTQVTVSS | low polyreactivity
QVQLVESGGGLVQAGGSRRLSCAAAGIIFYAYAMGWYRQAPGKEREFVARISRGGSTNYADSVKGRFTLSRDNAKNTVYLQMNSLKPEDTAVYYCAAYYAYLRYGGLYEYWGQGTQVTVSS | high polyreactivity
QVQLVESGGGLVQAGGSLRLSCAASGRTFKYNAMGWYRQAPGKERELVAAISSDDSTNYADSVKGRFTISRDNAKNTVYLQMNSLKPEDTAVYYCAARYGYSKWPDRVQAYKHDYWGQGTQVTVSS | low polyreactivity
QVQLEESGGGLVQAGGSLRLSSAASGSIFGVNPMGWYRQTPGKERELVARINWSSGRTYYADSVKGRFTISRDNAKNTVYLQMNCLKPEDTAVYYCAAAYWRPGVRFFGPYDYWGQGTQVTVSS | high polyreactivity
QVQLVESGGGLVQAGGSLRLSCAASGFIYHNAMGWYRQAPGKERELVARITWSGGSTSYADSVKGRFTISRDNAKNTVYLQMTSLKPEETAVYYCAARGVVYRYGASRGYWGQGTQVTVSS | high polyreactivity
